Experimental data published in article PMC8324494 (Cell Reports Medicine, 2021).

Experiments:
[1] = target: endogenous GPC2 on high-GPC2-expressing neuroblastoma cell lines (Homo sapiens (Human)., UniProt Q8N158); assay: flow cytometry on cells
[2] = target: GPC2 clone of the Membrane Proteome Array (Homo sapiens (Human)., UniProt Q8N158); assay: flow cytometry on cells
[3] = target: murine Gpc2 on the surface of cells (Gpc2 pLenti CMV puro vector) (Mus musculus (Mouse)., UniProt Q8BKV1); assay: flow cytometry on cells
[4] = target: human GPC2 on the surface of cells (GPC2 pLenti CMV puro vector) (Homo sapiens (Human)., UniProt Q8N158); assay: flow cytometry on cells
[5] = target: GPC2^24-554 (fully glycanated) (Homo sapiens (Human)., UniProt Q8N158); assay: BLI
[6] = target: GPC2^24-493 (fully glycanated) (Homo sapiens (Human)., UniProt Q8N158); assay: BLI

Measured: binding result

Chain of GPC2^24-493 (fully glycanated) (Q8N158 24-493): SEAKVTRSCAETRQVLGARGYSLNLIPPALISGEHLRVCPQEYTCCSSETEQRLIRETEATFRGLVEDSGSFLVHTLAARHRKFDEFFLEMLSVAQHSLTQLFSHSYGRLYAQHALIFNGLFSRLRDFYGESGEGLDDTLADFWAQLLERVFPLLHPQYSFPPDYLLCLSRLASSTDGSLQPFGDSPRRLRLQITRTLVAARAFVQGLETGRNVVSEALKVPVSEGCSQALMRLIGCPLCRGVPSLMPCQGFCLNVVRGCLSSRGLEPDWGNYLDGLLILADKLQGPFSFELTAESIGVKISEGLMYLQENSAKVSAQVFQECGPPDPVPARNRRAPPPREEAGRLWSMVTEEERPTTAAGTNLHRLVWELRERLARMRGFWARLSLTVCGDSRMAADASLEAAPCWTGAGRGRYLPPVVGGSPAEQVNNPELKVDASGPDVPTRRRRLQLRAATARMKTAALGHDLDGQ
Chain of GPC2 clone of the Membrane Proteome Array (Q8N158 24-554): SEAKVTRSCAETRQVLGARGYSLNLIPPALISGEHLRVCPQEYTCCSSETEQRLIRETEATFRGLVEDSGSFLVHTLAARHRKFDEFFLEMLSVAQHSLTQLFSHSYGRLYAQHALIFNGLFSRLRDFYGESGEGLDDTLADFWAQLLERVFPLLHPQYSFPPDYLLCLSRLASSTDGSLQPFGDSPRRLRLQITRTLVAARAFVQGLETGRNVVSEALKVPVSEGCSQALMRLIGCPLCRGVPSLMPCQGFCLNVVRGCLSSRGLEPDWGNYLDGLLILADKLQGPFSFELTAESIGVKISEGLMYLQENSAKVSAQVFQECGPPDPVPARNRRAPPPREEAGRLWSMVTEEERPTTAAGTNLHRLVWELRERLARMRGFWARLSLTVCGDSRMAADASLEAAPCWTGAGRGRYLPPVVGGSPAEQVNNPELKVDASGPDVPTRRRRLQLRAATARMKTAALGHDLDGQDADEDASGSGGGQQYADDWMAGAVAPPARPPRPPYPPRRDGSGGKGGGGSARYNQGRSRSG
Chain of human GPC2 on the surface of cells (GPC2 pLenti CMV puro vector) (Q8N158 24-554): as above
Chain of GPC2^24-554 (fully glycanated) (Q8N158 24-554): as above
Chain of endogenous GPC2 on high-GPC2-expressing neuroblastoma cell lines (Q8N158 24-554): as above
Chain of murine Gpc2 on the surface of cells (Gpc2 pLenti CMV puro vector) (Q8BKV1 22-556): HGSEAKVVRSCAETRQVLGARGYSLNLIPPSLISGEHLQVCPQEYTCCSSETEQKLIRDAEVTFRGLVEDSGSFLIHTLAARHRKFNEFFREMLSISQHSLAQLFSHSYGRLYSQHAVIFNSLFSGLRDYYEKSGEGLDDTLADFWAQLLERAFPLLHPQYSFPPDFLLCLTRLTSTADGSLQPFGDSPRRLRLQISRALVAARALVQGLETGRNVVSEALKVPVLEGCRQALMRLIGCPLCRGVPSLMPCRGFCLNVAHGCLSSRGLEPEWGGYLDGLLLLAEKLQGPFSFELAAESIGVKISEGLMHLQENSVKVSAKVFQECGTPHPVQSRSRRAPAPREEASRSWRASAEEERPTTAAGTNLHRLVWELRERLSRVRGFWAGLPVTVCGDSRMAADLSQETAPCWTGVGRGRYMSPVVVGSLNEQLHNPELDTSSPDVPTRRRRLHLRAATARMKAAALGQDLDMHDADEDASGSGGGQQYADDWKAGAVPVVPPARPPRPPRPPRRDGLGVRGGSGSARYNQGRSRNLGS

B1: D3-GPC2-IgG1 (fully human GPC2 antibody, full-length human IgG1) (antibody, V domains shown)
VH: EVQLVETGGGVVKPGGSLRLSCAASGFTFSDYYMSWIRQAPGKGLEWVSYISSSGSTIYYADSVKGRFTISRDNSKNTLYLQMNSLRAEDTAVYYCARESGYDYVFDYWGQGTLVAVSS
VL: DIQMTQSPSTLSAFVGDRVTITCRASQSISSWLAWYQQKPGKAPKLLIYAASTLQSGVPSRFSGSGSGTEFTLTISSLQPEDFATYYCQQLNSYPITFGQGTRLEIK
binds: [1] | [2] | [3] | [4]

B2: D3-GPC2 antigen-binding fragment (D3-GPC2-Fab) (Fab, V domains shown)
VH: B1 VH
VL: B1 VL
binds: [5] | [6]
